Results: the Immune Epitope Database (IEDB)

What was measured:
HLA-C*04:01 = test: IEDB peptide-MHC binding, purified MHC/direct/fluorescence; filed as Kd, often an IC50 or EC50 that approximates it; ≥ and ≤ were set here for values at or beyond the usual limits of such assays
HLA-A*01:01 = test: as above
HLA-A*02:01 [1] = test: as above
HLA-A*03:01 = test: as above
HLA-A*11:01 = test: as above
HLA-A*26:01 = test: as above; details: source organism: Influenza A virus(A/swine/Shandong/fNY/2003(H9N2))
HLA-A*31:01 = test: as above
HLA-A*69:01 = test: as above
HLA-B*07:02 = test: as above
HLA-B*08:01 [2] = test: as above; details: source organism: Influenza A virus(A/swine/Shandong/fNY/2003(H9N2))
HLA-B*15:01 = test: as above
HLA-B*15:17 [3] = test: as above
HLA-B*18:01 = test: as above
HLA-B*27:05 = test: as above
HLA-B*40:01 = test: as above; details: source organism: Influenza A virus (A/SW/MN/12883/00(H1N2))
HLA-B*46:01 [4] = test: as above
HLA-B*48:01 [5] = test: as above
HLA-B*57:01 = test: as above
HLA-B*58:01 = test: as above
HLA-B*15:09 = test: IEDB peptide-MHC binding, purified MHC/competitive/fluorescence; filed as Kd, often an IC50 or EC50 that approximates it; ≥ and ≤ were set here for values at or beyond the usual limits of such assays
HLA-B*51:01 = test: as above; details: source organism: Influenza A virus H3N2
HLA-B*48:01 [6] = test: as above; details: source organism: Cryptosporidium parvum Iowa II
HLA-A*23:01 = test: IEDB peptide-MHC binding, purified MHC/direct/fluorescence; filed as Kd, often an IC50 or EC50 that approximates it; ≥ and ≤ were set here for values at or beyond the usual limits of such assays; details: source organism: Vibrio vulnificus YJ016
HLA-A*24:02 = test: as above; details: source organism: Vibrio vulnificus YJ016
HLA-A*24:03 = test: as above; details: source organism: Vibrio vulnificus YJ016
HLA-A*26:03 = test: as above; details: source organism: Vibrio vulnificus YJ016
HLA-A*68:02 [7] = test: as above; details: source organism: Vibrio vulnificus YJ016
HLA-B*08:02 = test: as above; details: source organism: Vibrio vulnificus YJ016
HLA-A*02:06 = test: IEDB peptide-MHC binding, purified MHC/competitive/fluorescence; filed as Kd, often an IC50 or EC50 that approximates it; ≥ and ≤ were set here for values at or beyond the usual limits of such assays; details: source organism: Vibrio vulnificus YJ016
HLA-B*08:01 [8] = test: as above; details: source organism: Vibrio vulnificus YJ016
HLA-B*39:01 = test: as above
HLA-A*02:01 [9] = test: as above; details: source organism: Escherichia coli 536
HLA-A*26:02 = test: as above; details: source organism: Escherichia coli 536
HLA-A*68:02 [10] = test: as above; details: source organism: Escherichia coli 536
HLA-B*15:17 [11] = test: as above; details: source organism: Escherichia coli 536
HLA-C*03:03 = test: IEDB peptide-MHC binding, purified MHC/direct/fluorescence; filed as Kd, often an IC50 or EC50 that approximates it; ≥ and ≤ were set here for values at or beyond the usual limits of such assays; details: source organism: Pan troglodytes
HLA-C*08:02 = test: as above
HLA-B*15:42 = test: IEDB peptide-MHC binding, purified MHC/competitive/fluorescence; filed as Kd, often an IC50 or EC50 that approximates it; ≥ and ≤ were set here for values at or beyond the usual limits of such assays
HLA-B*45:06 = test: as above
HLA-B*83:01 = test: as above
HLA-C*14:02 = test: as above
HLA-C*06:02 = test: IEDB peptide-MHC binding, purified MHC/direct/fluorescence; filed as Kd, often an IC50 or EC50 that approximates it; ≥ and ≤ were set here for values at or beyond the usual limits of such assays; details: source organism: Brucella abortus S19
HLA-C*12:03 = test: as above; details: source organism: Brucella abortus S19
HLA-C*15:02 = test: as above; details: source organism: Brucella abortus S19
HLA-B*15:02 = test: IEDB peptide-MHC binding, purified MHC/competitive/fluorescence; filed as Kd, often an IC50 or EC50 that approximates it; ≥ and ≤ were set here for values at or beyond the usual limits of such assays; details: source organism: Brucella abortus S19
HLA-B*46:01 [12] = test: as above; details: source organism: Brucella abortus S19
[13] = source organism: Influenza A virus (A/SW/MN/12883/00(H1N2))
[14] = source organism: Vibrio vulnificus YJ016
[15] = source organism: Escherichia coli O157:H7
[16] = source organism: Escherichia coli 536
[17] = source organism: Pan troglodytes
[18] = source organism: Brucella abortus S19
[19] = source organism: human gammaherpesvirus 4

How did the Kd (HLA-C*04:01; source organism: West Nile virus) turn out when WYDWQQVPF was run?
The Kd was 0.007 µM.

How did the Kd (HLA-A*01:01; [13]) turn out when FPNEVGARI was run?
Its Kd is at least 20 µM.

What about the Kd (HLA-A*02:01 [1]; [13]) of the same sequence?
Its Kd is at least 20 µM.

And the Kd (HLA-A*03:01; [13])?
Its Kd is at least 20 µM.

And the Kd (HLA-A*11:01; [13])?
Its Kd is at least 20 µM.

What about the Kd (HLA-A*26:01) of the same sequence?
The Kd was at least 20 µM.

And the Kd (HLA-A*31:01; [13])?
Its Kd is at least 20 µM.

And the Kd (HLA-A*69:01; [13])?
Its Kd is 0.0038 µM.

What about the Kd (HLA-B*07:02; [13]) of the same sequence?
The Kd was 0.066 µM.

What about the Kd (HLA-B*08:01 [2]) of the same sequence?
The Kd was 3.05 µM.

What about the Kd (HLA-B*15:01; [13]) of the same sequence?
Its Kd is at least 20 µM.

What about the Kd (HLA-B*15:17 [3]; [13]) of the same sequence?
The Kd was at least 20 µM.

And the Kd (HLA-B*18:01; [13])?
The Kd was at least 20 µM.

And the Kd (HLA-B*27:05; [13])?
The Kd was at least 20 µM.

And the Kd (HLA-B*40:01)?
Its Kd is at least 20 µM.

And the Kd (HLA-B*46:01 [4]; [13])?
The Kd was at least 20 µM.

And the Kd (HLA-B*48:01 [5]; [13])?
Its Kd is at least 20 µM.

And the Kd (HLA-B*57:01; [13])?
Its Kd is at least 20 µM.

What about the Kd (HLA-B*58:01; [13]) of the same sequence?
The Kd was at least 20 µM.

And the Kd (HLA-B*15:09; source organism: Influenza A virus H3N2)?
The Kd was 1.13 µM.

And the Kd (HLA-B*51:01)?
Its Kd is 0.352 µM.

With IQNEIMKPL as the sequence, how does the Kd (HLA-B*48:01 [6]) read?
The Kd was 0.502 µM.

How did the Kd (HLA-A*01:01; [14]) turn out when WHQARFEEL was run?
The Kd was at least 20 µM.

What about the Kd (HLA-A*02:01 [1]; [14]) of the same sequence?
The Kd was at least 20 µM.

What about the Kd (HLA-A*03:01; [14]) of the same sequence?
The Kd was at least 20 µM.

And the Kd (HLA-A*11:01; [14])?
The Kd was at least 20 µM.

What about the Kd (HLA-A*23:01) of the same sequence?
Its Kd is 1.7 µM.

What about the Kd (HLA-A*24:02) of the same sequence?
The Kd was 8.8 µM.

And the Kd (HLA-A*24:03)?
The Kd was 0.145 µM.

And the Kd (HLA-A*26:03)?
Its Kd is at least 20 µM.

What about the Kd (HLA-A*31:01; [14]) of the same sequence?
Its Kd is at least 20 µM.

What about the Kd (HLA-A*68:02 [7]) of the same sequence?
The Kd was at least 20 µM.

What about the Kd (HLA-A*69:01; [14]) of the same sequence?
The Kd was at least 20 µM.

And the Kd (HLA-B*07:02; [14])?
The Kd was at least 20 µM.

What about the Kd (HLA-B*08:02) of the same sequence?
The Kd was at least 20 µM.

And the Kd (HLA-B*15:01; [14])?
Its Kd is at least 20 µM.

What about the Kd (HLA-B*15:17 [3]; [14]) of the same sequence?
Its Kd is at least 20 µM.

What about the Kd (HLA-B*18:01; [14]) of the same sequence?
Its Kd is at least 20 µM.

What about the Kd (HLA-B*27:05; [14]) of the same sequence?
The Kd was at least 20 µM.

And the Kd (HLA-B*57:01; [14])?
The Kd was at least 20 µM.

What about the Kd (HLA-B*58:01; [14]) of the same sequence?
The Kd was at least 20 µM.

And the Kd (HLA-A*02:06)?
The Kd was at least 20 µM.

And the Kd (HLA-B*08:01 [8])?
The Kd was at least 20 µM.

And the Kd (HLA-B*15:09; [14])?
Its Kd is 0.0229 µM.

What about the Kd (HLA-B*39:01; [14]) of the same sequence?
Its Kd is 0.0179 µM.

IQNDLITEF was tested. Which Kd (HLA-C*04:01; source organism: Vaccinia virus Copenhagen) did it give?
The Kd was at least 20 µM.

For VMAASGAPF, which Kd (HLA-A*01:01; [15]) is on record?
Its Kd is at least 20 µM.

And the Kd (HLA-A*11:01; [15])?
The Kd was at least 20 µM.

And the Kd (HLA-A*31:01; [15])?
The Kd was at least 20 µM.

And the Kd (HLA-A*69:01; [15])?
The Kd was at least 20 µM.

And the Kd (HLA-B*07:02; [15])?
The Kd was 0.149 µM.

And the Kd (HLA-B*15:01; [15])?
The Kd was 0.019 µM.

What about the Kd (HLA-B*27:05; [15]) of the same sequence?
Its Kd is at least 20 µM.

And the Kd (HLA-B*46:01 [4]; [15])?
Its Kd is 1.34 µM.

And the Kd (HLA-B*48:01 [5]; [15])?
Its Kd is at least 20 µM.

And the Kd (HLA-B*57:01; [15])?
Its Kd is at least 20 µM.

And the Kd (HLA-A*02:01 [9])?
The Kd was at least 20 µM.

And the Kd (HLA-A*26:02)?
Its Kd is at least 20 µM.

And the Kd (HLA-A*68:02 [10])?
The Kd was at least 20 µM.

And the Kd (HLA-B*15:09; [16])?
Its Kd is at least 20 µM.

And the Kd (HLA-B*15:17 [11])?
Its Kd is 0.214 µM.

What about the Kd (HLA-B*39:01; [16]) of the same sequence?
Its Kd is at least 20 µM.

VMPPRTLLL was tested. Which Kd (HLA-C*03:03) did it give?
The Kd was at least 20 µM.

And the Kd (HLA-C*08:02; [17])?
The Kd was at least 20 µM.

What about the Kd (HLA-B*15:42; [17]) of the same sequence?
Its Kd is at least 5 µM.

What about the Kd (HLA-B*45:06; [17]) of the same sequence?
Its Kd is at least 5 µM.

What about the Kd (HLA-B*83:01; [17]) of the same sequence?
Its Kd is at least 5 µM.

What about the Kd (HLA-C*14:02; [17]) of the same sequence?
The Kd was 0.0768 µM.

With YMRERLSDF as the sequence, how does the Kd (HLA-C*06:02) read?
The Kd was 0.112 µM.

And the Kd (HLA-C*12:03)?
The Kd was 0.094 µM.

What about the Kd (HLA-C*15:02) of the same sequence?
Its Kd is at least 20 µM.

What about the Kd (HLA-B*15:02) of the same sequence?
Its Kd is 0.235 µM.

What about the Kd (HLA-B*15:42; [18]) of the same sequence?
The Kd was at least 5 µM.

And the Kd (HLA-B*45:06; [18])?
The Kd was at least 5 µM.

What about the Kd (HLA-B*46:01 [12]) of the same sequence?
Its Kd is 0.0306 µM.

What about the Kd (HLA-B*83:01; [18]) of the same sequence?
Its Kd is at least 5 µM.

And the Kd (HLA-C*14:02; [18])?
Its Kd is 0.018 µM.

How did the Kd (HLA-C*04:01; [19]) turn out when RSDEYVAYY was run?
Its Kd is at least 20 µM.

And the Kd (HLA-C*08:02; [19])?
The Kd was 0.481 µM.
